Consider five molecules from PMC10003557 (International Journal of Molecular Sciences, 2023).

Test [1] deals with T1, SARS-CoV-2 receptor-binding domain (RBD) wild-type (WT) (SARS-CoV-2 (Wuhan, WT), UniProt P0DTC2).
T1 construct: also called RBD WT; RBD Wuhan (WT)
Nature of the test: ELISA; binding ELISA of purified hIgG1 on RBD; EC50. The settings on record: both partners purified.

Test [2] has as its target T1, SARS-CoV-2 receptor-binding domain …. Nature of the test: bead-based flow cytometry (iQue3) blocking assay. The settings on record: both partners purified. On the technique in general: Flow cytometry measures light scatter and fluorescence of single cells or particles in a stream.
The target in test [3] is T2, biotinylated RBD protein (SPD-C82E9, Acro Biosystems) (SARS-CoV-2 (WT), UniProt P0DTC2).
T2 construct: also called Biotinylated RBD WT; RBD-Qbeads
In words: bead-based flow cytometry (iQue3, Qbeads) competition assay. The settings on record: both partners purified.

The target of test [4] is T1, SARS-CoV-2 receptor-binding domain …. In words: SPR; Biacore; antibodies captured on the chip (Protein A CM5 chip by the methods, anti-IgG antibody by the results), RBD WT flown over; 1:1 Langmuir fit. The settings on record: both partners purified. On the technique in general: In SPR one partner is held on a chip, and binding of the other changes the refractive index at the surface.

Test [5] has the same target. In words: cell-based or functional assay.
Test [6] has the same target. In words: bead-based flow cytometry (iQue3) blocking assay. Conditions: both partners purified. This is another data set of the same source.
For test [7], the target named is T2, biotinylated RBD protein (SPD-C82E9, …). In words: bead-based flow cytometry (iQue3, Qbeads) competition assay. The settings on record: both partners purified. The source holds these as a separate data set.
Test [8] addresses T1, SARS-CoV-2 receptor-binding domain …. Nature of the test: SPR; Biacore; antibodies captured on the chip (Protein A CM5 chip by the methods, anti-IgG antibody by the results), RBD WT flown over; 1:1 Langmuir fit. The settings on record: both partners purified. This is another data set of the same source.

B1: P5E1 (hIgG1) (antibody, V domains shown)
VH: EVQLLESGGGLVQPGGSLRLSCAASGFTFSDSAMSWVRQAPGKGLEWVSGIYGRGGYTYYADSVKGRFTISRDNSKNTLYLQMNSLRAEDTAVYYCARGGSWFDPWGQGTLVTVSS
VL: not shown
The molecule B1 registered an EC50 in test [1] of 0.97 nM. Moreover, in test [2], the IC50 worked out at 2.63 nM. The molecule further came in with an IC50 in test [3] of 2.15 nM. In test [4], this molecule gave a Kd of 27.1 nM, a koff of 0.00433 s⁻¹ and a kon of 160000 M⁻¹ s⁻¹.

B2: P5A10-G2 (hIgG1) (antibody, V domains shown)
VH: EVQLLESGGGLVQPGGSLRLSCAASGFTSSNTWMSWVRQAPGKGLEWVSGIDGRGGSTYYADSVKGRFTISRDNSKNTLYLQMNSLRAEDTAVYYCATDSSTQPWYFDLWGRGTLVTVSS
VL: EIVLTQSPATLSLSPGERATLSCRASQSVSSNLAWYQQKPGQAPRLLIYDASNRATGIPARFSGSGSGTDFTLTISSLEPEDFAVYYCQQREREPITFGQGTKVEIK
In the case of B2, the “PRNT: authentic SARS-CoV-2 on Vero E6 cells, NC50; pair blocked: RBD with hACE-2” value (shortened to “PRNT … with hACE-2”) in test [5] was determined as 61.1 nM. This molecule also registered an IC50 in test [6] of 1.18 nM. Further, the IC50 in test [7] is 1.23 nM. In test [8], this molecule showed a Kd of 0.39 nM, a koff of 0.000578 s⁻¹ and a kon of 1.49e+06 M⁻¹ s⁻¹.

B3: P5A10-G4 (hIgG1) (antibody, V domains shown)
VH: EVQLLESGGGLVQPGGSLRLSCAASGFTFSSYWMSWVRQAPGKGLEWVSGISGSGRRAFGGSTYYADSVKGRFTISRDNSKNTLYLQMNSLRAEDTAVYYCATDSSTQPWYFDLWGRGTLVTVSS
VL: EIVLTQSPATLSLSPGERATLSCRASQSVSSNLAWYQQKPGQAPRLLIYDASNRATGIPARFSGSGSGTDFTLTISSLEPEDFAVYYCQQREREPITFGQGTKVEIK
B3: the “PRNT … with hACE-2” value in test [5] is 10.4 nM. Besides, the concentration for half-maximal inhibition (IC50) in test [6] came out at 0.78 nM. Also, the IC50 in test [7] amounted to 0.12 nM. In test [8], this molecule returned a Kd of 0.14 nM, an off-rate (koff) of 0.000148 s⁻¹ and a kon of 1.09e+06 M⁻¹ s⁻¹.

B4: P5A10 (hIgG1) (antibody, V domains shown)
VH: EVQLLESGGGLVQPGGSLRLSCAASGFTFSSSAMSWVRQAPGKGLEWVSGIYGRGGSTYYADSVKGRFTISRDNSKNTLYLQMNSLRAEDTAVYYCATDSSTQPWYFDLWGRGTLVTVSS
VL: EIVLTQSPATLSLSPGERATLSCRASQSVSSNLAWYQQKPGQAPRLLIYDASNRATGIPARFSGSGSGTDFTLTISSLEPEDFAVYYCQQREREPITFGQGTKVEIK
B4 displayed a concentration for a half-maximal effect (EC50) in test [1] of 16.9 nM. This molecule came in with a half-maximal inhibitory concentration (IC50) in test [3] of 2.34 nM. In test [4], binding was characterised by a dissociation constant (Kd) of 28.8 nM, the koff amounted to 0.00367 s⁻¹ and the on-rate constant (kon) worked out at 127000 M⁻¹ s⁻¹.

B5: P5E1-A6 (hIgG1) (antibody, V domains shown)
VH: EVQLLESGGGLVQPGGSLRLSCAASGFTFTSTAMSWVRQAPGKGLEWVSGIYGRGSTRYADSVKGRFTISRDNSKNTLYLQMNSLRAEDTAVYYCARGGSWFDPWGQGTLVTVSS
VL: not shown
With B5, in test [5], the “PRNT … with hACE-2” value was found to be 43.9 nM. Further, the half-maximal inhibitory concentration (IC50) in test [6] turned out to be 0.61 nM. Also, the concentration for half-maximal inhibition (IC50) in test [7] was 0.06 nM. Also, in test [8], the dissociation constant (Kd) was 0.89 nM, the koff was 0.000527 s⁻¹ and the kon amounted to 588000 M⁻¹ s⁻¹.

As usually defined, the EC50 is the concentration at which the effect is half-maximal. Low readings indicate a more potent agent, high ones a less potent agent. As usually defined, the IC50 is the midpoint of a concentration-inhibition curve. Read a high IC50 as weaker potency. For orientation: Kd means the constant that tells how readily two partners part at equilibrium. One may read the koff as the first-order rate constant of dissociation. As usually defined, the kon is the second-order rate constant of association. A lower kon goes with slower complex formation.
